How the values were obtained:
mSNAPc#2 2Mu = target: T1, mSNAPc#2 2Mu (Homo sapiens, UniProt Q5SXM2;Q92966;Q16533;O75971 1-505;1-411;1-268;1-98, Y389A;R151A); assay: SPR; EMSA: 100 mM KCl, 25 mM HEPES-K pH 7.6, 12.5 mM MgCl2, 10 uM ZnCl2, 0.1 mM EDTA, 10% glycerol, 3 mM DTT, 0.5 mM PMSF, 50 nM DNA, RT 30 min; SPR: 100 mM KCl, 12.5 mM MgCl2, 10 uM ZnCl2, 0.1 mM EDTA, 0.05% P20, 25 C; details: protein: recombinant; tags: as P1; copies: 1;1;1;1
T1 sequence 1: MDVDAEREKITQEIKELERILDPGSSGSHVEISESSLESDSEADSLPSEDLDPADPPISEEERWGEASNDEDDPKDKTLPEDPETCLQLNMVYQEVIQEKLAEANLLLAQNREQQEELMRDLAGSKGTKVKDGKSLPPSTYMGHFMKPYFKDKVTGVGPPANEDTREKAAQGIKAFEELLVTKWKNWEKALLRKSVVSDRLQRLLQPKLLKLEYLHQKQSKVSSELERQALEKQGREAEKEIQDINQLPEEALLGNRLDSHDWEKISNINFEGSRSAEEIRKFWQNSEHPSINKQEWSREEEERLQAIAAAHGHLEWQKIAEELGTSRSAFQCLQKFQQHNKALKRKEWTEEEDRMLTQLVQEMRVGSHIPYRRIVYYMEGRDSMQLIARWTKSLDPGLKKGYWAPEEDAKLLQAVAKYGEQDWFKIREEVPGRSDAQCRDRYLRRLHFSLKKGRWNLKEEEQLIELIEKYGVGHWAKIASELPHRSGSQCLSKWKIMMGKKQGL
T1 sequence 2: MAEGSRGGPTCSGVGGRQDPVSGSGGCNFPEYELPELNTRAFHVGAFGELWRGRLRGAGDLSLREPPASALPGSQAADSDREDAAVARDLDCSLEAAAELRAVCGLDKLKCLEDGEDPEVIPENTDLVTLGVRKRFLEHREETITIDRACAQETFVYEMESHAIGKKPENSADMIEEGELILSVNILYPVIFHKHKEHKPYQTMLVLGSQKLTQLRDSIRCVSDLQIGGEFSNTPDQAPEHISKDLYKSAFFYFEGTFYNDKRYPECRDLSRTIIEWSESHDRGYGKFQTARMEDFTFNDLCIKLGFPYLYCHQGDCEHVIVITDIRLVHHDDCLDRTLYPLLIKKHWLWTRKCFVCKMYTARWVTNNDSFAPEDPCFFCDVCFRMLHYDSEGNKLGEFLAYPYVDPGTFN
T1 sequence 3: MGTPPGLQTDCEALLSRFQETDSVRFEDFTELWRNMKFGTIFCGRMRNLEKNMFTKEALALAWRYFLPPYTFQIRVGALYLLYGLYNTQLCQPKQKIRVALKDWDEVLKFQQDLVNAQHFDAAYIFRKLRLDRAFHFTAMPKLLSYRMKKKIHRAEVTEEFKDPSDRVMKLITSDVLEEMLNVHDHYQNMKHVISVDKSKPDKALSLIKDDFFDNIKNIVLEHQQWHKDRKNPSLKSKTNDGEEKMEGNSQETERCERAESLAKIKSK
T1 sequence 4: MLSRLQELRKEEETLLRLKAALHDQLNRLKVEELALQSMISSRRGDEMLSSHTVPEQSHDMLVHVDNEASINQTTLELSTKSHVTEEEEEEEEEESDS

mSNAPc#2 SNAP190-R445A = target: T2, mSNAPc#2 SNAP190-R445A (Homo sapiens, UniProt Q5SXM2;Q92966;Q16533;O75971 1-505;1-411;1-268;1-98, R445A); assay: as above; details: protein: recombinant; tags: as P1; copies: 1;1;1;1
T2 sequence 1: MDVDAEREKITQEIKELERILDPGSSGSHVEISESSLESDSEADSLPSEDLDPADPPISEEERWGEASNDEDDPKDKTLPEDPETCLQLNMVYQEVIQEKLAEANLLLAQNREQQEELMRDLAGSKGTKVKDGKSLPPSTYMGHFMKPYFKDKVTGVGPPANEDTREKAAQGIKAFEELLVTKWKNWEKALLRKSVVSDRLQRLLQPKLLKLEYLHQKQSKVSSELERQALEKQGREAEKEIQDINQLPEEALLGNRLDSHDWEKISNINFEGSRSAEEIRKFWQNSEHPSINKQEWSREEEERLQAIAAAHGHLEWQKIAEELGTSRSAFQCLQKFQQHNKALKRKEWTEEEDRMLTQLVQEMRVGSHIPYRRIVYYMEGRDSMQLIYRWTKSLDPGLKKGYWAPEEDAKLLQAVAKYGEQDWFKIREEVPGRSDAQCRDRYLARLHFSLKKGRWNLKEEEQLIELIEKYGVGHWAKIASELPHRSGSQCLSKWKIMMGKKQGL
T2 sequence 2: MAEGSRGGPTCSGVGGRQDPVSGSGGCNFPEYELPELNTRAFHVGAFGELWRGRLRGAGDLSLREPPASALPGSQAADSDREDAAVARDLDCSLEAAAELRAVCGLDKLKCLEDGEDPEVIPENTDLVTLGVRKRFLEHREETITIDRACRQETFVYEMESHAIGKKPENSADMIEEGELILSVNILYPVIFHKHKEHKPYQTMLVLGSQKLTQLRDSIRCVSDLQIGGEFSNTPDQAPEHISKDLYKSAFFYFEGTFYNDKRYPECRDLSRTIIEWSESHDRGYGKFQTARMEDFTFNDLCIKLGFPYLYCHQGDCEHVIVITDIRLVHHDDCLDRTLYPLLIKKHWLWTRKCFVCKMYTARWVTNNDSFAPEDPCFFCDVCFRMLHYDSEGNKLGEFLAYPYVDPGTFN
T2 sequence 3: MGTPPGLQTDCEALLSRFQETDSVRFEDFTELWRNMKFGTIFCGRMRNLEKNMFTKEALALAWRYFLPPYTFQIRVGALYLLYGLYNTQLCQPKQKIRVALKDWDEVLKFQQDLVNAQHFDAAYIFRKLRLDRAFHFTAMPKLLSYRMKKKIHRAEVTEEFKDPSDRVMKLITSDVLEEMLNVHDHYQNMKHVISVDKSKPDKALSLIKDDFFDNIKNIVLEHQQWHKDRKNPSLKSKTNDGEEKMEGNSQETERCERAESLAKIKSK
T2 sequence 4: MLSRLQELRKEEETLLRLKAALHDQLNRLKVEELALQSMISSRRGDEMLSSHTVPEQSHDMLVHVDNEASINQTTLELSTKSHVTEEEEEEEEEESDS

B1: 25 bp hU6-1 PSE (SPR) (dsDNA)
DNA 1: TGCTTACCGTAACTTGAAAGTATTT
DNA 2: AAATACTTTCAAGTTACGGTAAGCA
mSNAPc#2 2Mu
  Kd: 1620 nM
mSNAPc#2 SNAP190-R445A
  Kd: 603 nM
